Test results as given in patent US20210246204A1 (Alector, published 2021).
Positions count from the first letter of the chain named.

B1: S7AB-H8.7 (antibody, V domains shown)
VH: QVQLVQSGAEVKKPGASVKVSCKASGYAFTMAWMNWVRQAPGQGLEWIGRIFPGYGHTNYAQKFQGRATLTEDTSTSTAYMELSSLRSEDTAVYYCARDYSDYYFDYWGQGTLVTVSS
VL: DIQMTQSPSSLSASVGDRVTITCRGSQDINTYLNWYQQKPGKAPKLLIYYTSRLHSGVPSRFSGSGSGTDYTLTISSLQPEDFATYYCQQGNTKPWTFGQGTKLEIK
B2: S7AB-H8.8 (antibody, V domains shown)
VH: B1 VH with M31G, A32Y, Y55L
VL: B1 VL
B3: S7AB-H8.9 (antibody, V domains shown)
VH: B1 VH with M31A, Y55L
VL: B1 VL
B4: S7AB-H8.10 (antibody, V domains shown)
VH: B1 VH with M31E
VL: B1 VL
B5: S7AB-H8.11 (antibody, V domains shown)
VH: B1 VH with M31E, A32T, Y55L
VL: B1 VL with Q90G, K94L
B6: S7AB-H8.12 (antibody, V domains shown)
VH: B1 VH
VL: B1 VL with Q90G, K94L
B7: S7AB-H8.13 (antibody, V domains shown)
VH: B1 VH with M31G, A32Y, Y55L
VL: B1 VL with Q90G, K94L
B8: S7AB-H8.14 (antibody, V domains shown)
VH: B1 VH with M31A, Y55L
VL: B1 VL with Q90G, K94L
B9: S7AB-H8.15 (antibody, V domains shown)
VH: B1 VH with M31E
VL: B1 VL with Q90G, K94L
B10: S7AB-H8.16 (antibody, V domains shown)
VH: B1 VH with M31E, A32T, Y55L
VL: B1 VL with I29T, K94L
B11: S7AB-H8.17 (antibody, V domains shown)
VH: B1 VH
VL: B1 VL with I29T, K94L
B12: S7AB-H8.18 (antibody, V domains shown)
VH: B1 VH with M31G, A32Y, Y55L
VL: B1 VL with I29T, K94L
B13: S7AB-H8.19 (antibody, V domains shown)
VH: B1 VH with M31A, Y55L
VL: B1 VL with I29T, K94L
B14: S7AB-H8.20 (antibody, V domains shown)
VH: B1 VH with M31E
VL: B1 VL with I29T, K94L
B15: S7AB-H8.21 (antibody, V domains shown)
VH: B1 VH with M31E, A32T, Y55L
VL: B1 VL with G25A, Q27E, N92G, K94L
B16: S7AB-H8.22 (antibody, V domains shown)
VH: B1 VH
VL: B1 VL with G25A, Q27E, N92G, K94L
B17: S7AB-H8.23 (antibody, V domains shown)
VH: B1 VH with M31G, A32Y, Y55L
VL: B1 VL with G25A, Q27E, N92G, K94L
B18: S7AB-H8.24 (antibody, V domains shown)
VH: B1 VH with M31A, Y55L
VL: B1 VL with G25A, Q27E, N92G, K94L
B19: S7AB-H8.25 (antibody, V domains shown)
VH: B1 VH with M31E
VL: B1 VL with G25A, Q27E, N92G, K94L
B20: S7AB-H8.26 (antibody, V domains shown)
VH: B1 VH with M31E, A32T, Y55L
VL: B1 VL with G25A, I29A, T93L, K94L

Each binder was assayed against human Siglec-7 on primary human monocyte-derived dendritic cells (human, UniProt Q9Y286 19-467) (assay: cell-based or functional assay).
human Siglec-7 on primary human monocyte-derived dendritic cells, sequence (Q9Y286 19-467): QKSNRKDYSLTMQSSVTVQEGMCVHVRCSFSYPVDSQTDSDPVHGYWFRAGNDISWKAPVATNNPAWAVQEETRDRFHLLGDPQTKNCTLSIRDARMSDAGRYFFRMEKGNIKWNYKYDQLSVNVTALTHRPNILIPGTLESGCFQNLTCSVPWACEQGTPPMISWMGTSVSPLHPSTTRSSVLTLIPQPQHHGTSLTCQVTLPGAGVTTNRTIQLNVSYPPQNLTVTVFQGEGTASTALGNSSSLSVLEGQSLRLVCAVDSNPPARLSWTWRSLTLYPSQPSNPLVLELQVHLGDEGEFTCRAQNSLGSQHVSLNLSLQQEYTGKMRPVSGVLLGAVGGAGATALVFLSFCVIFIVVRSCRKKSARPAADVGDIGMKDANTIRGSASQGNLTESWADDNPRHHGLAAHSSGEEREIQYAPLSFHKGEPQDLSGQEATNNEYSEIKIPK
With B1 the “Fold increase in potency compared to AB-H8” value (“Fold increase … to AB-H8” for short) was 4 fold, the “Fold increase in potency compared to Chimeric Ab” value (“Fold increase … to Chimeric Ab” for short) was 12.1 fold and the “Maximal downregulation (% Siglec-7 remaining)” value was 2.1%. The “Receptor downregulation, (EC50) (pM)” value was 84.7 pM. In the case of B2, the “Fold increase … to AB-H8” value is reported as 3.8 fold, the “Fold increase … to Chimeric Ab” value is reported as 11.4 fold and the “Maximal downregulation (% Siglec-7 remaining)” value is reported as 19.2%. The “Receptor downregulation, (EC50) (pM)” value was 89.8 pM. For B3, the “Fold increase … to AB-H8” value was 2.9 fold, the “Fold increase … to Chimeric Ab” value was 8.8 fold and the “Maximal downregulation (% Siglec-7 remaining)” value was 3.1%. The “Receptor downregulation, (EC50) (pM)” value was 116 pM. With B4 the “Fold increase … to AB-H8” value was 1.7 fold, the “Fold increase … to Chimeric Ab” value was 5.2 fold and the “Maximal downregulation (% Siglec-7 remaining)” value was 7%. For the same binder, the “Receptor downregulation, (EC50) (pM)” value was 197 pM. In the case of B5, the “Fold increase … to AB-H8” value is reported as 0.05 fold, the “Fold increase … to Chimeric Ab” value is reported as 0.1 fold and the “Maximal downregulation (% Siglec-7 remaining)” value is reported as 74.7%. For the same binder, the “Receptor downregulation, (EC50) (pM)” value was 7140 pM. B6 was tested, and the “Fold increase … to AB-H8” value was 0.01 fold, the “Fold increase … to Chimeric Ab” value was 0.04 fold and the “Maximal downregulation (% Siglec-7 remaining)” value was 61.3%. The “Receptor downregulation, (EC50) (pM)” value was 25400 pM. B7 was tested, and the “Fold increase … to AB-H8” value was 0.1 fold, the “Fold increase … to Chimeric Ab” value was 0.5 fold and the “Maximal downregulation (% Siglec-7 remaining)” value was 43.3%. The “Receptor downregulation, (EC50) (pM)” value was 2270 pM. In the case of B8, the “Fold increase … to AB-H8” value is reported as 0.2 fold, the “Fold increase … to Chimeric Ab” value is reported as 0.5 fold and the “Maximal downregulation (% Siglec-7 remaining)” value is reported as 45.7%. For the same binder, the “Receptor downregulation, (EC50) (pM)” value was 1950 pM. With B9 the “Maximal downregulation (% Siglec-7 remaining)” value was 85% and the “Receptor downregulation, (EC50) (pM)” value was over 3000 pM. With B10 the “Fold increase … to AB-H8” value was 1 fold, the “Fold increase … to Chimeric Ab” value was 2.9 fold and the “Maximal downregulation (% Siglec-7 remaining)” value was 10.1%. The “Receptor downregulation, (EC50) (pM)” value was 348 pM. B11 was tested, and the “Fold increase … to AB-H8” value was 2.9 fold, the “Fold increase … to Chimeric Ab” value was 8.8 fold and the “Maximal downregulation (% Siglec-7 remaining)” value was 8%. For the same binder, the “Receptor downregulation, (EC50) (pM)” value was 116 pM. In the case of B12, the “Fold increase … to AB-H8” value is reported as 5 fold, the “Fold increase … to Chimeric Ab” value is reported as 15.2 fold and the “Maximal downregulation (% Siglec-7 remaining)” value is reported as 18.9%. The “Receptor downregulation, (EC50) (pM)” value was 67.3 pM. With B13 the “Fold increase … to AB-H8” value was 3.5 fold, the “Fold increase … to Chimeric Ab” value was 10.5 fold and the “Maximal downregulation (% Siglec-7 remaining)” value was 6.7%. For the same binder, the “Receptor downregulation, (EC50) (pM)” value was 97.8 pM. With B14 the “Fold increase … to AB-H8” value was 1.4 fold, the “Fold increase … to Chimeric Ab” value was 4.2 fold and the “Maximal downregulation (% Siglec-7 remaining)” value was 10.6%. For the same binder, the “Receptor downregulation, (EC50) (pM)” value was 245 pM. With B15 the “Fold increase … to AB-H8” value was 2.2 fold, the “Fold increase … to Chimeric Ab” value was 6.8 fold and the “Maximal downregulation (% Siglec-7 remaining)” value was 13.6%. The “Receptor downregulation, (EC50) (pM)” value was 152 pM. With B16 the “Fold increase … to AB-H8” value was 3.1 fold, the “Fold increase … to Chimeric Ab” value was 9.4 fold and the “Maximal downregulation (% Siglec-7 remaining)” value was 3.9%. For the same binder, the “Receptor downregulation, (EC50) (pM)” value was 109 pM. In the case of B17, the “Fold increase … to AB-H8” value is reported as 3.8 fold, the “Fold increase … to Chimeric Ab” value is reported as 11.4 fold and the “Maximal downregulation (% Siglec-7 remaining)” value is reported as 17.2%. For the same binder, the “Receptor downregulation, (EC50) (pM)” value was 90.1 pM. B18 was tested, and the “Fold increase … to AB-H8” value was 2.6 fold, the “Fold increase … to Chimeric Ab” value was 8 fold and the “Maximal downregulation (% Siglec-7 remaining)” value was 4.3%. For the same binder, the “Receptor downregulation, (EC50) (pM)” value was 129 pM. B19 was tested, and the “Fold increase … to AB-H8” value was 1.8 fold, the “Fold increase … to Chimeric Ab” value was 5.4 fold and the “Maximal downregulation (% Siglec-7 remaining)” value was 9.2%. The “Receptor downregulation, (EC50) (pM)” value was 189 pM. B20 was tested, and the “Fold increase … to AB-H8” value was 1.9 fold, the “Fold increase … to Chimeric Ab” value was 5.7 fold and the “Maximal downregulation (% Siglec-7 remaining)” value was 9.8%. For the same binder, the “Receptor downregulation, (EC50) (pM)” value was 180 pM.

Each binder was assayed against T1, histidine-tagged human Siglec-7 (NovoProtein) (human, UniProt Q9Y286 19-353) (assay: BLI, antibody captured).
T1 construct: Bought protein; also called recombinant human Siglec-7; recombinant Siglec-7; not shown: histidine tag
T1 sequence (Q9Y286 19-353 limits assumed): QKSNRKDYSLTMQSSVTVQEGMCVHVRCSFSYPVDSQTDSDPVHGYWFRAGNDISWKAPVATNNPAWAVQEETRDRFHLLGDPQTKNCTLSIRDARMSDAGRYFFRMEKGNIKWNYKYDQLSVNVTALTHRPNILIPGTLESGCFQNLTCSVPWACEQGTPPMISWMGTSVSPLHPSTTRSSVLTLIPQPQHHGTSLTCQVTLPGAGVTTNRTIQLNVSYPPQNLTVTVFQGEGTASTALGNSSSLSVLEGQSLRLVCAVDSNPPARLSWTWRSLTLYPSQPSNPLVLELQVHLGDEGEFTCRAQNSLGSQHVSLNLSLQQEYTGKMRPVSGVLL
Description: In this assay, the humanized antibodies were compared directly to S7AB. Briefly, the antibodies were captured on anti-human or anti-mouse IgG Fc Biosensors (Pall ForteBio). Varying concentrations (0-100 nM) of histidine-tagged human Siglec-7 (NovoProtein) were then bound to the captured anti-Siglec-7 surface (200 s association time, 900 s dissociation time). Multi-concentration kinetic analysis was performed using a 1:1 interaction model to extract association and dissociation rate constants (kₐ and kd, respectively) for each antibody. Apparent affinity constants (KD) were calculated from the ratio kd/kₐ.
The affinities of S7AB-H8 and variants S7AB-H8.1 through S7AB-H8.45 for human Siglec-7 were measured by BioLayer Interferometry according to the method described in Example 1 above.
With B1 the Kd was 0.62 nM, the “fold improvement over S7AB-H8” value was 1.7 fold and the koff was 4.19e-05 s⁻¹. The kon was 67600 M⁻¹ s⁻¹. In the case of B2, the Kd is reported as 0.371 nM, the “fold improvement over S7AB-H8” value is reported as 2.8 fold and the koff is reported as 6.33e-05 s⁻¹. It also gave a kon of 171000 M⁻¹ s⁻¹. B3 was tested, and the Kd was 0.527 nM, the “fold improvement over S7AB-H8” value was 2 fold and the koff was 4.82e-05 s⁻¹. For the same binder, the kon was 91400 M⁻¹ s⁻¹. With B4 the Kd was 1.62 nM, the “fold improvement over S7AB-H8” value was 0.6 fold and the koff was 8.14e-05 s⁻¹. For the same binder, the kon was 50400 M⁻¹ s⁻¹. For B5, the Kd was 124 nM, the “fold improvement over S7AB-H8” value was 0.01 fold and the koff was 0.000388 s⁻¹. It also gave a kon of 3140 M⁻¹ s⁻¹. With B6 the Kd was 46.3 nM, the “fold improvement over S7AB-H8” value was 0.02 fold and the koff was 0.000155 s⁻¹. The kon was 3350 M⁻¹ s⁻¹. With B7 the Kd was 35.7 nM, the “fold improvement over S7AB-H8” value was 0.03 fold and the koff was 0.000303 s⁻¹. For the same binder, the kon was 8500 M⁻¹ s⁻¹. B8 was tested, and the Kd was 54.1 nM, the “fold improvement over S7AB-H8” value was 0.02 fold and the koff was 0.000176 s⁻¹. The kon was 3260 M⁻¹ s⁻¹. With B9 the Kd was 2.6 nM, the “fold improvement over S7AB-H8” value was 0.4 fold and the koff was 0.000607 s⁻¹. It also gave a kon of 233000 M⁻¹ s⁻¹. For B10, the Kd was 2.53 nM, the “fold improvement over S7AB-H8” value was 0.4 fold and the koff was 0.000165 s⁻¹. The kon was 65400 M⁻¹ s⁻¹. With B11 the Kd was 0.814 nM, the “fold improvement over S7AB-H8” value was 1.3 fold and the koff was 0.000104 s⁻¹. The kon was 128000 M⁻¹ s⁻¹. With B12 the Kd was 0.712 nM, the “fold improvement over S7AB-H8” value was 1.5 fold and the koff was 0.000142 s⁻¹. For the same binder, the kon was 199000 M⁻¹ s⁻¹. With B13 the Kd was 0.898 nM, the “fold improvement over S7AB-H8” value was 1.2 fold and the koff was 0.000112 s⁻¹. It also gave a kon of 125000 M⁻¹ s⁻¹. With B14 the Kd was 1.81 nM, the “fold improvement over S7AB-H8” value was 0.6 fold and the koff was 0.000145 s⁻¹. It also gave a kon of 79900 M⁻¹ s⁻¹. In the case of B15, the Kd is reported as 0.936 nM, the “fold improvement over S7AB-H8” value is reported as 1.1 fold and the koff is reported as 0.000125 s⁻¹. For the same binder, the kon was 133000 M⁻¹ s⁻¹. B16 was tested, and the Kd was under 0.001 nM, the “fold improvement over S7AB-H8” value was over 1000 fold and the koff was under 1e-07 s⁻¹. It also gave a kon of 135000 M⁻¹ s⁻¹. In the case of B17, the Kd is reported as 0.235 nM, the “fold improvement over S7AB-H8” value is reported as 4.5 fold and the koff is reported as 5.53e-05 s⁻¹. It also gave a kon of 235000 M⁻¹ s⁻¹. In the case of B18, the Kd is reported as 0.0368 nM, the “fold improvement over S7AB-H8” value is reported as 28.5 fold and the koff is reported as 4.81e-06 s⁻¹. The kon was 131000 M⁻¹ s⁻¹. In the case of B19, the Kd is reported as 0.265 nM, the “fold improvement over S7AB-H8” value is reported as 4 fold and the koff is reported as 2.77e-05 s⁻¹. It also gave a kon of 104000 M⁻¹ s⁻¹. For B20, the Kd was 0.397 nM, the “fold improvement over S7AB-H8” value was 2.6 fold and the koff was 5.9e-05 s⁻¹. For the same binder, the kon was 149000 M⁻¹ s⁻¹.
